# From the supplement of paper PMC11908140
# B1: library; numbered along this chain (parent)
# chain: MRKPRAAVGSGHRKQAASQEGRQKHAKNNSQAKPSACDGLARQPEEVVLQASVSSYHLFRDVAEVTAFRGSLLSWYDQEKRDLPWRRRAEDEMDLDRRAYAVWVSEVMLQQTQVATVINYYTGWMQKWPTLQDLASASLEEVNQLWAGLGYYSRGRRLQEGARKVVEELGGHMPRTAETLQQLLPGVGRYTAGAIASIAFGQATGVVDGNVARVLCRVRAIGADPSSTLVSQQLWGLAQQLVDPARPGDFNQAAMELGATVCTPQRPLCSQCPVESLCRARQRVEQEQLLASGSLSGSPDVEECAPNTGQCHLCLPPSEPWDQTLGVVNFPRKASRKPPREESSATCVLEQPGALGAQILLVQRPNSGLLAGLWEFPSVTWEPSEQLQRKALLQELQRWAGPLPATHLRHLGEVVHTFSHIKLTYQVYGLALEGQTPVTTVPPGARWLTQEEFHTAAVSTAMKKVFRVYQGQQPGTCMGSKRSQVSSPCSRKKPRMGQQVLDNFFRSHISTDAHSLNSAAQ
# Variants of: B1
# Experiment: 8OG:A repair function score (normalized; synonymous = 0, nonsense = -1) (normalized log-likelihood score); higher = more repair activity (WT-like)
# Details: with 8OG:A DNA repair reporter (GFP) in HEK-293 MUTYH KO cells
# Summary of the method: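 Lentiviral MUTYH cDNA NNN codon-scan libraries were expressed in MUTYH knockout HEK-293 cells with 10 pg/ml doxycycline, and the cells received an 8OG:A GFP repair reporter together with mCherry. At 72 h, viable mCherry+ cells went into GFP+ (repair) or GFP− bins, three replicates per tile, before tile amplicons were sequenced. A repair function score was then built from per-tile Rosace fitness scores, anchored on the synonymous and nonsense distributions. Synonymous medians sat at 0 and nonsense at -1, and variants under 300 counts per million at the start were left out.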
# 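Further: cells sorted at 72 h after reporter transfection.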
row,Variant,8OG:A repair function score
1,MRKPRAAVGSGHRKQAASQEGRQKHAKNNSQAKPSACDGLARQPEEVVLQASVSSYHLFRDVAEVTAFRGSLLSWYDQEKRDLPWRRRAEDEMDLDRRAYAVWVSEVMLQQTQVATVINYYTGWMQKWPTLQDLASASLEEVNQLWAGLGYYSRARRLQEGARKVVEELGGHMPRTAETLQQLLPGVGRYTAGAIASIAFGQATGVVDGNVARVLCRVRAIGADPSSTLVSQQLWGLAQQLVDPARPGDFNQAAMELGATVCTPQRPLCSQCPVESLCRARQRVEQEQLLASGSLSGSPDVEECAPNTGQCHLCLPPSEPWDQTLGVVNFPRKASRKPPREESSATCVLEQPGALGAQILLVQRPNSGLLAGLWEFPSVTWEPSEQLQRKALLQELQRWAGPLPATHLRHLGEVVHTFSHIKLTYQVYGLALEGQTPVTTVPPGARWLTQEEFHTAAVSTAMKKVFRVYQGQQPGTCMGSKRSQVSSPCSRKKPRMGQQVLDNFFRSHISTDAHSLNSAAQ [G155A],0.037
2,MRKPRAAVGSGHRKQAASQEGRQKHAKNNSQAKPSACDGLARQPEEVVLQASVSSYHLFRDVAEVTAFRGSLLSWYDQEKRDLPWRRRAEDEMDLDRRAYAVWVSEVMLQQTQVATVINYYTGWMQKWPTLQDLASASLEEVNQLWAGLGYYSRCRRLQEGARKVVEELGGHMPRTAETLQQLLPGVGRYTAGAIASIAFGQATGVVDGNVARVLCRVRAIGADPSSTLVSQQLWGLAQQLVDPARPGDFNQAAMELGATVCTPQRPLCSQCPVESLCRARQRVEQEQLLASGSLSGSPDVEECAPNTGQCHLCLPPSEPWDQTLGVVNFPRKASRKPPREESSATCVLEQPGALGAQILLVQRPNSGLLAGLWEFPSVTWEPSEQLQRKALLQELQRWAGPLPATHLRHLGEVVHTFSHIKLTYQVYGLALEGQTPVTTVPPGARWLTQEEFHTAAVSTAMKKVFRVYQGQQPGTCMGSKRSQVSSPCSRKKPRMGQQVLDNFFRSHISTDAHSLNSAAQ [G155C],-0.117
3,MRKPRAAVGSGHRKQAASQEGRQKHAKNNSQAKPSACDGLARQPEEVVLQASVSSYHLFRDVAEVTAFRGSLLSWYDQEKRDLPWRRRAEDEMDLDRRAYAVWVSEVMLQQTQVATVINYYTGWMQKWPTLQDLASASLEEVNQLWAGLGYYSMGRRLQEGARKVVEELGGHMPRTAETLQQLLPGVGRYTAGAIASIAFGQATGVVDGNVARVLCRVRAIGADPSSTLVSQQLWGLAQQLVDPARPGDFNQAAMELGATVCTPQRPLCSQCPVESLCRARQRVEQEQLLASGSLSGSPDVEECAPNTGQCHLCLPPSEPWDQTLGVVNFPRKASRKPPREESSATCVLEQPGALGAQILLVQRPNSGLLAGLWEFPSVTWEPSEQLQRKALLQELQRWAGPLPATHLRHLGEVVHTFSHIKLTYQVYGLALEGQTPVTTVPPGARWLTQEEFHTAAVSTAMKKVFRVYQGQQPGTCMGSKRSQVSSPCSRKKPRMGQQVLDNFFRSHISTDAHSLNSAAQ [R154M],-1.16
4,MRKPRAAVGSGHRKQAASQEGRQKHAKNNSQAKPSACDGLARQPEEVVLQASVSSYHLFRDVAEVTAFRGSLLSWYDQEKRDLPWRRRAEDEMDLDRRAYAVWVSEVMLQQTQVATVINYYTGWMQKWPTLQDLASASLEEVNQLWAGLGYYSVGRRLQEGARKVVEELGGHMPRTAETLQQLLPGVGRYTAGAIASIAFGQATGVVDGNVARVLCRVRAIGADPSSTLVSQQLWGLAQQLVDPARPGDFNQAAMELGATVCTPQRPLCSQCPVESLCRARQRVEQEQLLASGSLSGSPDVEECAPNTGQCHLCLPPSEPWDQTLGVVNFPRKASRKPPREESSATCVLEQPGALGAQILLVQRPNSGLLAGLWEFPSVTWEPSEQLQRKALLQELQRWAGPLPATHLRHLGEVVHTFSHIKLTYQVYGLALEGQTPVTTVPPGARWLTQEEFHTAAVSTAMKKVFRVYQGQQPGTCMGSKRSQVSSPCSRKKPRMGQQVLDNFFRSHISTDAHSLNSAAQ [R154V],-1.04
5,MRKPRAAVGSGHRKQAASQEGRQKHAKNNSQAKPSACDGLARQPEEVVLQASVSSYHLFRDVAEVTAFRGSLLSWYDQEKRDLPWRRRAEDEMDLDRRAYAVWVSEVMLQQTQVATVINYYTGWMQKWPTLQDLASASLEEVNQLWAGLGYYSTGRRLQEGARKVVEELGGHMPRTAETLQQLLPGVGRYTAGAIASIAFGQATGVVDGNVARVLCRVRAIGADPSSTLVSQQLWGLAQQLVDPARPGDFNQAAMELGATVCTPQRPLCSQCPVESLCRARQRVEQEQLLASGSLSGSPDVEECAPNTGQCHLCLPPSEPWDQTLGVVNFPRKASRKPPREESSATCVLEQPGALGAQILLVQRPNSGLLAGLWEFPSVTWEPSEQLQRKALLQELQRWAGPLPATHLRHLGEVVHTFSHIKLTYQVYGLALEGQTPVTTVPPGARWLTQEEFHTAAVSTAMKKVFRVYQGQQPGTCMGSKRSQVSSPCSRKKPRMGQQVLDNFFRSHISTDAHSLNSAAQ [R154T],-1.16
6,MRKPRAAVGSGHRKQAASQEGRQKHAKNNSQAKPSACDGLARQPEEVVLQASVSSYHLFRDVAEVTAFRGSLLSWYDQEKRDLPWRRRAEDEMDLDRRAYAVWVSEVMLQQTQVATVINYYTGWMQKWPTLQDLASASLEEVNQLWAGLGYYSNGRRLQEGARKVVEELGGHMPRTAETLQQLLPGVGRYTAGAIASIAFGQATGVVDGNVARVLCRVRAIGADPSSTLVSQQLWGLAQQLVDPARPGDFNQAAMELGATVCTPQRPLCSQCPVESLCRARQRVEQEQLLASGSLSGSPDVEECAPNTGQCHLCLPPSEPWDQTLGVVNFPRKASRKPPREESSATCVLEQPGALGAQILLVQRPNSGLLAGLWEFPSVTWEPSEQLQRKALLQELQRWAGPLPATHLRHLGEVVHTFSHIKLTYQVYGLALEGQTPVTTVPPGARWLTQEEFHTAAVSTAMKKVFRVYQGQQPGTCMGSKRSQVSSPCSRKKPRMGQQVLDNFFRSHISTDAHSLNSAAQ [R154N],-0.885
7,MRKPRAAVGSGHRKQAASQEGRQKHAKNNSQAKPSACDGLARQPEEVVLQASVSSYHLFRDVAEVTAFRGSLLSWYDQEKRDLPWRRRAEDEMDLDRRAYAVWVSEVMLQQTQVATVINYYTGWMQKWPTLQDLASASLEEVNQLWAGLGYYSWGRRLQEGARKVVEELGGHMPRTAETLQQLLPGVGRYTAGAIASIAFGQATGVVDGNVARVLCRVRAIGADPSSTLVSQQLWGLAQQLVDPARPGDFNQAAMELGATVCTPQRPLCSQCPVESLCRARQRVEQEQLLASGSLSGSPDVEECAPNTGQCHLCLPPSEPWDQTLGVVNFPRKASRKPPREESSATCVLEQPGALGAQILLVQRPNSGLLAGLWEFPSVTWEPSEQLQRKALLQELQRWAGPLPATHLRHLGEVVHTFSHIKLTYQVYGLALEGQTPVTTVPPGARWLTQEEFHTAAVSTAMKKVFRVYQGQQPGTCMGSKRSQVSSPCSRKKPRMGQQVLDNFFRSHISTDAHSLNSAAQ [R154W],-1.03
8,MRKPRAAVGSGHRKQAASQEGRQKHAKNNSQAKPSACDGLARQPEEVVLQASVSSYHLFRDVAEVTAFRGSLLSWYDQEKRDLPWRRRAEDEMDLDRRAYAVWVSEVMLQQTQVATVINYYTGWMQKWPTLQDLASASLEEVNQLWAGLGYYSLGRRLQEGARKVVEELGGHMPRTAETLQQLLPGVGRYTAGAIASIAFGQATGVVDGNVARVLCRVRAIGADPSSTLVSQQLWGLAQQLVDPARPGDFNQAAMELGATVCTPQRPLCSQCPVESLCRARQRVEQEQLLASGSLSGSPDVEECAPNTGQCHLCLPPSEPWDQTLGVVNFPRKASRKPPREESSATCVLEQPGALGAQILLVQRPNSGLLAGLWEFPSVTWEPSEQLQRKALLQELQRWAGPLPATHLRHLGEVVHTFSHIKLTYQVYGLALEGQTPVTTVPPGARWLTQEEFHTAAVSTAMKKVFRVYQGQQPGTCMGSKRSQVSSPCSRKKPRMGQQVLDNFFRSHISTDAHSLNSAAQ [R154L],-1.06
9,MRKPRAAVGSGHRKQAASQEGRQKHAKNNSQAKPSACDGLARQPEEVVLQASVSSYHLFRDVAEVTAFRGSLLSWYDQEKRDLPWRRRAEDEMDLDRRAYAVWVSEVMLQQTQVATVINYYTGWMQKWPTLQDLASASLEEVNQLWAGLGYYSYGRRLQEGARKVVEELGGHMPRTAETLQQLLPGVGRYTAGAIASIAFGQATGVVDGNVARVLCRVRAIGADPSSTLVSQQLWGLAQQLVDPARPGDFNQAAMELGATVCTPQRPLCSQCPVESLCRARQRVEQEQLLASGSLSGSPDVEECAPNTGQCHLCLPPSEPWDQTLGVVNFPRKASRKPPREESSATCVLEQPGALGAQILLVQRPNSGLLAGLWEFPSVTWEPSEQLQRKALLQELQRWAGPLPATHLRHLGEVVHTFSHIKLTYQVYGLALEGQTPVTTVPPGARWLTQEEFHTAAVSTAMKKVFRVYQGQQPGTCMGSKRSQVSSPCSRKKPRMGQQVLDNFFRSHISTDAHSLNSAAQ [R154Y],-1.21
10,MRKPRAAVGSGHRKQAASQEGRQKHAKNNSQAKPSACDGLARQPEEVVLQASVSSYHLFRDVAEVTAFRGSLLSWYDQEKRDLPWRRRAEDEMDLDRRAYAVWVSEVMLQQTQVATVINYYTGWMQKWPTLQDLASASLEEVNQLWAGLGYYSPGRRLQEGARKVVEELGGHMPRTAETLQQLLPGVGRYTAGAIASIAFGQATGVVDGNVARVLCRVRAIGADPSSTLVSQQLWGLAQQLVDPARPGDFNQAAMELGATVCTPQRPLCSQCPVESLCRARQRVEQEQLLASGSLSGSPDVEECAPNTGQCHLCLPPSEPWDQTLGVVNFPRKASRKPPREESSATCVLEQPGALGAQILLVQRPNSGLLAGLWEFPSVTWEPSEQLQRKALLQELQRWAGPLPATHLRHLGEVVHTFSHIKLTYQVYGLALEGQTPVTTVPPGARWLTQEEFHTAAVSTAMKKVFRVYQGQQPGTCMGSKRSQVSSPCSRKKPRMGQQVLDNFFRSHISTDAHSLNSAAQ [R154P],-1.06
11,MRKPRAAVGSGHRKQAASQEGRQKHAKNNSQAKPSACDGLARQPEEVVLQASVSSYHLFRDVAEVTAFRGSLLSWYDQEKRDLPWRRRAEDEMDLDRRAYAVWVSEVMLQQTQVATVINYYTGWMQKWPTLQDLASASLEEVNQLWAGLGYYSSGRRLQEGARKVVEELGGHMPRTAETLQQLLPGVGRYTAGAIASIAFGQATGVVDGNVARVLCRVRAIGADPSSTLVSQQLWGLAQQLVDPARPGDFNQAAMELGATVCTPQRPLCSQCPVESLCRARQRVEQEQLLASGSLSGSPDVEECAPNTGQCHLCLPPSEPWDQTLGVVNFPRKASRKPPREESSATCVLEQPGALGAQILLVQRPNSGLLAGLWEFPSVTWEPSEQLQRKALLQELQRWAGPLPATHLRHLGEVVHTFSHIKLTYQVYGLALEGQTPVTTVPPGARWLTQEEFHTAAVSTAMKKVFRVYQGQQPGTCMGSKRSQVSSPCSRKKPRMGQQVLDNFFRSHISTDAHSLNSAAQ [R154S],-1.03
12,MRKPRAAVGSGHRKQAASQEGRQKHAKNNSQAKPSACDGLARQPEEVVLQASVSSYHLFRDVAEVTAFRGSLLSWYDQEKRDLPWRRRAEDEMDLDRRAYAVWVSEVMLQQTQVATVINYYTGWMQKWPTLQDLASASLEEVNQLWAGLGYYSQGRRLQEGARKVVEELGGHMPRTAETLQQLLPGVGRYTAGAIASIAFGQATGVVDGNVARVLCRVRAIGADPSSTLVSQQLWGLAQQLVDPARPGDFNQAAMELGATVCTPQRPLCSQCPVESLCRARQRVEQEQLLASGSLSGSPDVEECAPNTGQCHLCLPPSEPWDQTLGVVNFPRKASRKPPREESSATCVLEQPGALGAQILLVQRPNSGLLAGLWEFPSVTWEPSEQLQRKALLQELQRWAGPLPATHLRHLGEVVHTFSHIKLTYQVYGLALEGQTPVTTVPPGARWLTQEEFHTAAVSTAMKKVFRVYQGQQPGTCMGSKRSQVSSPCSRKKPRMGQQVLDNFFRSHISTDAHSLNSAAQ [R154Q],-1.06
